# Results taken from the nanobody polyreactivity screen of Harvey et al. (2022).
# Experiment: yeast display, Sf9 membrane polyspecificity reagent, FACS + sequencing; frameworks hold sequencing errors
# How it was run: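 Synthetic nanobody libraries on Saccharomyces cerevisiae BJ5465 were galactose-induced for 36–48 hours, stained 1 hour at 4 °C with 10% biotinylated, detergent-solubilized Sf9 membrane reagent and enriched on streptavidin microbeads. FACS then separated cells into low and high (top ~1%) gates by anti-HA (expression) and streptavidin (reagent binding) fluorescence. Genes were colony-PCR amplified, MiSeq 2 × 250 sequenced and CDR-length filtered. A clone's polyreactivity label is that of its gate of origin.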
row,Sequence,polyreactivity (PSR sort gate)
1,QVQLVESGGGLVQAGGSLRLSCDASGFTFRVYAMGWYRQAPGKEREFVASIRSNDGRTYYADSVKGRFTISRDNAKNTVYLQLNSLKPEDTAVYYCAARYSPRGKRYDYWGQGTQVTVSS,high polyreactivity
2,QVQLVESGGGLVQAGGSLRLSCDASGGIFYGYAMGWYRQAPGKERELVAAISDSGGSTYYSDSVKGRFTITRDNAKNNVYLQMNSLKPEDTAVYYCATDAPVGGYVSEGDYWGQGTQVTVSS,low polyreactivity
3,QVQLVESGGGLVQAGGSLRLSCDASGITYHNYAMGWYRQAPGKEREYVAAITRNTASSYYADSVKGRFSISRDKAKNTVYFQMNSLKPEDTAVYYCAATDKKHRTAYDSWGQGTQVTVSS,low polyreactivity
4,QVQLVESGGGLVQAGGSLRLSCDASGLIFPWNSMGWYRQAPGQERELVAAINGRDGSTYYADSVKGRFTISRDNAKNTVYLQMNSLKPEDTAVFYCAKGPSGVRTYREYDSWGQGTQVTVSS,low polyreactivity
5,QVQLVESGGGLVQAGGSLRLSCDASGRIFGMYAMGWYRQSPGKEREFVAAISWRTGSTYYADSVKGRFTISRDNAKNTVYLQMNSLKPEDTAVYYCAAESAAKYGYWRQGTQVTVSS,high polyreactivity
6,QVQLVESGGGLVQAGGSLRLSCDASGRIFRGYAMGWYRKAPGKERELVAAISGRGGRTNYADSVKGRFTISRDNAKNTVYLQMNSLKTEDTAVYYCAVKRLSYPYVGHYYFWGQGTQVTVSS,high polyreactivity
7,QVQLVESGGGLVQAGGSLRLSCDASGRIFRVYAMGWYRPAPGKERELFAAISWSGGRTYYADSVKGRFTISRDNAKNTVYLQMNSLKPEDTAVYYCAAERGGPTYYSGGDYDYWGQGTQVTVSS,high polyreactivity
8,QVQLVESGGGLVQAGGSLRLSCDASGRIFRYNAMGWYRQAPGKEREFVAAITWRGGSTYYADSVKGRFTISRDNAKYTVYLQMNSLKPEDTAVYYCATRSPFGAAYEYGYWGQGTQVTVSS,high polyreactivity
9,QVQLVESGGGLVQAGGSLRLSCDASGRIFSENAMGWYRQAPGKERELVDAITGNGGDTYYADSVKGRFTISRDNAKNTVYLQMNSLKPEDTAVYYCAAVTGGLGGDYWGQGTQVTVSS,low polyreactivity
10,QVQLVESGGGLVQAGGSLRLSCDASGRIFYANAIGWYRQAPGKEREFVAAITRSGGSTYYADSVKGRFTISRDNAKNTVYLQMNSLKPEETAVYYCAAQGGDVYGWRYYYWGQGTQVTVSS,low polyreactivity
11,QVQLVESGGGLVQAGGSLRLSCDASGRIFYGYVMGWYRQAPGKERELVAAINQSGTSTYYADSVKGRFTISRDNAKNTVYLQMNSLKPEDTAVYYCAADQVGWTYDYWGQGTQVTVSS,low polyreactivity
12,QVQLVESGGGLVQAGGSLRLSCDASGRTFASNVMGWYRQAPGKERELVAAISRRGGSTYYADSVKGRFTISRDNAKNTVYLQMNSLKPEDTAVYYCNADDKAQSDYWGQGTQVTVSS,high polyreactivity
13,QVQLVESGGGLVQAGGSLRLSCDASGRTFGQNAMGWYRQAPGTERELVDAISASGSNTYYADSVKGRFTISRDNAKNTVYLQMNSLKPEDTAVYYCAKQVYRPGQQSRYDYWGQGTQVTVSS,low polyreactivity
14,QVQLVESGGGLVQAGGSLRLSCDASGRTFGVYAMGWYRQAPGKERELVAAISTRGGSTYYADSVKGRFTISRDNAKNTVYLQMNSLKPEDTAVYYCAAEQYVWGYWFNYGYWGQGTQVTVSS,high polyreactivity
15,QVQLVESGGGLVQAGGSLRLSCDASGRTLGGYTMGWYRQAPGKERELVAAITTGGSTNYADSVKGRFTISRDNAKNTVYLQMNSLKPEDTAVYYCATDLVFDKRYWYDYWGQGTQVTVSS,low polyreactivity
16,QVQLVESGGGLVQAGGSLRLSCDASGRTSGINAMGWYRQAPGKERELVAAISSGGRTYYADSVKGRFTISRDNAKNTVYLQMNSLKPEDTAVYYCAAVIHWSLYRRMEYWGQGTQVTVSS,high polyreactivity
17,QVQLVESGGGLVQAGGSLRLSCDASGRTYTGYAIGWYRQAPGKERELVAAISKSGGRTYYADSVKGRFTISRDYAKNTVYLQMNSLKPEDTAVYYCAKVETFLQIAYRRGYDSWGQGTQVTVSS,low polyreactivity
